Assay results published in the supplement of paper PMC11908140.

B1: library; numbered along this chain (parent)
chain: MRKPRAAVGSGHRKQAASQEGRQKHAKNNSQAKPSACDGLARQPEEVVLQASVSSYHLFRDVAEVTAFRGSLLSWYDQEKRDLPWRRRAEDEMDLDRRAYAVWVSEVMLQQTQVATVINYYTGWMQKWPTLQDLASASLEEVNQLWAGLGYYSRGRRLQEGARKVVEELGGHMPRTAETLQQLLPGVGRYTAGAIASIAFGQATGVVDGNVARVLCRVRAIGADPSSTLVSQQLWGLAQQLVDPARPGDFNQAAMELGATVCTPQRPLCSQCPVESLCRARQRVEQEQLLASGSLSGSPDVEECAPNTGQCHLCLPPSEPWDQTLGVVNFPRKASRKPPREESSATCVLEQPGALGAQILLVQRPNSGLLAGLWEFPSVTWEPSEQLQRKALLQELQRWAGPLPATHLRHLGEVVHTFSHIKLTYQVYGLALEGQTPVTTVPPGARWLTQEEFHTAAVSTAMKKVFRVYQGQQPGTCMGSKRSQVSSPCSRKKPRMGQQVLDNFFRSHISTDAHSLNSAAQ

Variants of: B1
Assay: 8OG:A repair function score (normalized; synonymous = 0, nonsense = -1) (normalized log-likelihood score); higher = more repair activity (WT-like)
Settings: with 8OG:A DNA repair reporter (GFP) in HEK-293 MUTYH KO cells
Procedure, shortened: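 With 10 pg/ml doxycycline, MUTYH knockout HEK-293 cells carrying lentiviral MUTYH cDNA NNN codon-scan libraries were co-transfected with mCherry and an 8OG:A GFP repair reporter. Viable mCherry+ cells were sorted into GFP+ (repair) and GFP− bins at 72 h, three replicates per tile, and tile amplicons were sequenced. Per-tile Rosace fitness scores were then normalized into a repair function score anchored on synonymous and nonsense distributions. Medians were fixed at 0 for synonymous and -1 for nonsense, excluding variants under 300 counts per million at the start.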

Row | Variant | 8OG:A repair function score
1 | R98P | -0.714
2 | F376N | -1.17
3 | V53R | 0.00694
4 | V230E | -0.881
5 | V230S | -0.422
6 | G356D | -0.142
7 | G356M | -0.207
8 | G356A | -0.11
9 | G148W | -1.48
10 | G148I | -1.27
11 | G148M | -1.1
12 | G161W | -1.19
13 | G161D | -0.688
14 | Q113Y | 0.0661
15 | Q113V | -0.43
16 | S483Y | -0.0745
17 | S483A | 0.00092
18 | A199K | -1.14
19 | D512M | -0.033
20 | W128S | -0.935
21 | S74H | 0.00229
22 | S74P | 0.00278
23 | S54P | 0.00682
24 | S54R | -0.0174

Row | Variant | 8OG:A repair function score
25 | E433D | -0.241
26 | R42F | 0.00894
27 | R42Q | 0.102
28 | M108H | -1.36
29 | M108Q | -0.453
30 | R266Q | -0.165
31 | G205D | -0.933
32 | Q498R | 0.0169
33 | Q498Y | 0.0174
34 | Q394C | -0.273
35 | T440D | -0.0869
36 | E395D | -0.291
37 | E395V | -0.0171
38 | L58H | 0.00605
39 | A194E | -0.986
40 | R86C | -0.587
41 | V301G | -0.279
42 | V301P | -0.31
43 | P316V | -0.121
44 | N366Y | 0.00766
45 | S367T | 0.119
46 | V117P | -1.02
47 | S510P | 0.0141
48 | L169D | -0.386

Row | Variant | 8OG:A repair function score
49 | L169N | -0.172
50 | T449N | -0.203
51 | F250E | -1.03
52 | C278A | -1.11
53 | C278P | -1.2
54 | C278G | -1.17
55 | A192I | -1.07
56 | A445N | -0.506
57 | T263D | -0.24
58 | S298I | 0.0307
59 | S298F | -0.0178
60 | T116A | -0.122
61 | T406F | -0.539
62 | P488E | -0.0239
63 | C216N | -0.84
64 | D249Q | -0.428
65 | A456M | -0.328
66 | D224T | -0.955
67 | M93F | 0.00598
68 | V414H | -0.326
69 | P474T | 0.0285
70 | H407M | -0.456
71 | H407E | -0.226
72 | V500S | 0.00727

Row | Variant | 8OG:A repair function score
73 | V500I | 0.0202
74 | R217C | -1.03
75 | R217D | -1.02
76 | Q282S | -0.0408
77 | S419G | -0.522
78 | S419Q | -0.333
79 | Q426F | -0.17
80 | Q426G | -0.158
81 | Q426V | -0.068
82 | L349G | -1.03
83 | M462D | -0.463
84 | M462R | -1.12
85 | S153V | -0.00826
86 | S153R | -0.265
87 | D94G | -0.231
88 | I198H | -0.963
89 | I198P | -0.841
90 | P185L | -0.344
91 | P185D | -0.333
92 | R506N | 0.00916
93 | P225N | -0.234
94 | Q202H | -0.0825
95 | P442E | -0.177
96 | I221Q | -1.03

Row | Variant | 8OG:A repair function score
97 | D322R | -0.044
98 | L373D | -1.15
99 | A89W | -0.0308
100 | C262E | -1.28
101 | H514R | -0.0107
102 | H514W | -0.03
103 | S296R | 0.0309
104 | R398L | -0.263
105 | E256V | -1.14
106 | W447G | -1.04
107 | L448E | -0.411
108 | K463N | -0.338
109 | K463W | -0.075
110 | K463D | -0.287
111 | K463V | -0.129
112 | V65N | -0.208
113 | L355I | -0.0806
114 | F466I | -0.587
115 | F466R | -0.568
116 | A461V | -0.124
117 | P317W | -0.205
118 | C347T | -0.206
119 | R213G | -1.01
120 | S490V | -0.0138

Row | Variant | 8OG:A repair function score
121 | T436P | -0.0919
122 | L83I | -0.196
123 | L83C | -0.323
124 | C272G | -1.24
125 | G150T | -1.35
126 | L289P | -0.0119
127 | S226I | -0.309
128 | S226Q | 0.176
129 | A391M | -0.279
130 | T380E | -0.0632
131 | P264V | -0.0712
132 | P264G | -0.159
133 | A137L | -1.02
134 | R340F | -0.491
135 | R340D | -0.385
136 | R340L | -0.211
137 | A238E | -0.688
138 | A238R | -1.01
139 | Q388K | -0.55
140 | R88W | -0.0355
141 | R482V | 0.00231
142 | S71H | -0.0346
143 | S71Q | -0.0211
144 | E141L | -0.401

Row | Variant | 8OG:A repair function score
145 | E141P | -0.499
146 | F59E | -0.768
147 | A400K | -0.458
148 | A400D | -0.752
149 | K422S | -0.227
150 | E140T | -0.149
151 | E140Q | -0.159
152 | E140D | 0.0449
153 | P273S | -0.426
154 | S343D | 0.0576
155 | P44C | -0.247
156 | V102N | -1.28
157 | D91T | -0.0112
158 | A291Q | 0.00288
159 | A291H | -0.0755
160 | V274F | -0.303
161 | V274R | -0.994
162 | V274E | -0.423
163 | A99C | -0.408
164 | Q450C | -0.0453
165 | Q450A | -0.0533
166 | T228C | -0.0551
167 | T228H | 0.457
